The values below come from paper doi:10.1101/259481 (bioRxiv, 2018).

Where two headings read alike, the source gives them in different places.

B3: placental growth factor (PlGF)-2 (ligand, human, UniProt P49763-3 19-170, looked up)
chain: LPAVPPQQWALSAGNGSSEVEVVPFQEVWGRSYCRALERLVDVVSEYPSEVEHMFSPSCVSLLRCTGCCGDENLHCVPVETANVTMQLLKIRSGDRPSYVELTFSQHVRCECRPLREKMKPERRRPKGRGKRRREKQRPTDCHLCGDAVPRR
B6: platelet-derived growth factor (PDGF)-BB (ligand, human, UniProt P01127 82-190, looked up)
chain: SLGSLTIAEPAMIAECKTRTEVFEISRRLIDRTNANFLVWPPCVEVQRCSGCCNNRNVQCRPTQVQLRPVQVRKIEIVRKKPIFKKATVTLEDHLACKCETVAAARPVT

Experiment [1] concerns the target recombinant laminin α3_(2928-3150) protein (human) (UniProt Q16787). As to the kind of experiment: SPR.
For experiment [2], the target named is laminin-521 (human, UniProt O15230 36-3695; P55268 33-1798; P11047 34-1609). As to the kind of experiment: SPR.
The target in experiment [3] is recombinant human syndecan-2 (human, UniProt P34741 19-144). The experiment can be described thus: ELISA.
Experiment [4] addresses T1, recombinant human syndecan-4 (human, UniProt P31431 19-145).
T1 sequence (looked up): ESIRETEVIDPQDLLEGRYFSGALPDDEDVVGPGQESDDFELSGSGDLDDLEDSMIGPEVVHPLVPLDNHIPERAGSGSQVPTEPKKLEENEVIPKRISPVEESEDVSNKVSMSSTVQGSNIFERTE
The experiment can be described thus: ELISA.

Experiment [5] concerns the target T2, recombinant human syndecan-1 (human, UniProt P18827 23-254).
T2 sequence (looked up): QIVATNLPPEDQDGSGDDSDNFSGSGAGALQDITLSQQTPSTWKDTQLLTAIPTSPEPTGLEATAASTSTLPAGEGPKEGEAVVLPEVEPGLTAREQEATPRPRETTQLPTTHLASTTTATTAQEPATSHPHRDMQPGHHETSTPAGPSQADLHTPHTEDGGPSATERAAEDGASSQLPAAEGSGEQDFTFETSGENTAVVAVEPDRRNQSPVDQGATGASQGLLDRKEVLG
The experiment can be described thus: ELISA.

Experiment [6] addresses B6. The experiment can be described thus: ELISA.
For experiment [7], the target named is fibroblast growth factor (FGF)-2 (human, UniProt P09038 143-288). The experiment can be described thus: ELISA.
For experiment [8], the target named is B3. The experiment can be described thus: ELISA.
The target of experiment [9] is T3, recombinant laminin α3_(2928-3150) protein (human, UniProt Q16787 2928-3150).
T3 sequence (looked up): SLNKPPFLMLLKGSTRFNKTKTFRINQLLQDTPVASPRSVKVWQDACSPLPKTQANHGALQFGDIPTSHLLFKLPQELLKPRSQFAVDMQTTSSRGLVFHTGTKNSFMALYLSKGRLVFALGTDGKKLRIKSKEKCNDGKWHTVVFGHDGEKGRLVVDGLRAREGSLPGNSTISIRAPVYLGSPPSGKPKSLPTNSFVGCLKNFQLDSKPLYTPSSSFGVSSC
The experiment can be described thus: ELISA.

Experiment [10] deals with laminin-411 (human, UniProt Q16363 25-1823; P07942 22-1786; P11047 34-1609). The experiment can be described thus: ELISA.
Experiment [11] deals with laminin-421 (human, UniProt Q16363 25-1823; P55268 33-1798; P11047 34-1609). As to the kind of experiment: ELISA.
Experiment [12] addresses T4, laminin-211 (human, UniProt P24043 23-3122; P07942 22-1786; P11047 34-1609). As to the kind of experiment: ELISA.
Experiment [13] concerns the target T5, laminin-111 (human, UniProt P25391 18-3075; P07942 22-1786; P11047 34-1609). As to the kind of experiment: ELISA.
In experiment [14] the target is T4, laminin-211. As to the kind of experiment: ELISA. This is another data set of the same source.
Experiment [15] concerns the target T5, laminin-111. The experiment can be described thus: ELISA. This is another data set of the same source.
For experiment [16], the target named is T3, recombinant laminin α3_(2928-3150) …. As to the kind of experiment: SPR.

Chain of fibroblast growth factor (FGF)-2 (P09038 143-288): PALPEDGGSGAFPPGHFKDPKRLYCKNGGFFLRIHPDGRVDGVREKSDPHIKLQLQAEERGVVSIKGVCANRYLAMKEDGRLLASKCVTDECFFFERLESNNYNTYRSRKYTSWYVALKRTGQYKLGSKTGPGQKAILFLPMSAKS
Chain of recombinant human syndecan-2 (P34741 19-144): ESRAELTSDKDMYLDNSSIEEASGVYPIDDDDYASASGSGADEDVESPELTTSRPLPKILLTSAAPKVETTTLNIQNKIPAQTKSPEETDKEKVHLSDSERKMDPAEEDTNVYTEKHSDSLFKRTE

For the molecule “vascular endothelial growth factor (VEGF)-A165 (ligand)”, the Kd came to 1.2 nM in [1] and 5.8 nM in experiment [2].

B1: laminin-derived peptide α3_(3043-3067) (peptide, UniProt Q16787 3043-3067, looked up)
peptide: RLVFALGTDGKKLRIKSKEKCNDGK
As for B1, the binding result in [3], in experiment [4], in [5], in experiment [6], in experiment [7] and in experiment [8] was “binds” in each case.

B2: laminin-derived peptide α3_(2932-2951) (peptide, UniProt Q16787 2932-2951, looked up)
peptide: PPFLMLLKGSTRFNKTKTFR
Consider B2, for which the binding result in experiment [7] is listed as “binds”.

Take B3: the binding result in experiment [9], in experiment [10], in experiment [11], in [12] and in experiment [13] was “binds” each time. Also, the Kd in experiment [2] came out at 12.9 nM.

B4: laminin-derived peptide α5_(3539-3550) (peptide, UniProt O15230 3539-3550, looked up)
peptide: TLPDVGLELEVR
On to B4, for which the binding result in [6], in experiment [7] and in [8] was “binds” throughout.

B5: laminin-derived peptide α5_(3300-3330) (peptide, UniProt O15230 3300-3330, looked up)
peptide: TPGLGPRGLQATARKASRRSRQPARHPACML
As to B5, the binding result in experiment [3], in experiment [4], in [5] and in experiment [8] was “binds” each time.

Take B6: the binding result in experiment [14], in experiment [15], in experiment [10] and in experiment [11] was “binds” each time. The Kd is 24.2 nM in experiment [2] and 10.2 nM in experiment [16].

B7: laminin-derived peptide α5_(3417-3436) (peptide, UniProt O15230 3417-3436, looked up)
peptide: RQRSRPGRWHKVSVRWEKNR
Regarding B7, the binding result in [3], in experiment [4], in [5], in experiment [6], in [7] and in [8] was “binds” in each case.
